Assay results reported in patent US20050142135A1, “Agents and methods for modulating interactions between gonadotropin hormones and receptors” (University of Kentucky Research Foundation, priority 2003, published 2005).

B1: del: human FSHR deletion mutant, L583 deleted (protein, UniProt P23945 18-695, looked up, variant L583*)
Follicle-stimulating hormone …: CHHRICHCSNRVFLCQESKVTEIPSDLPRNAIELRFVLTKLRVIQKGAFSGFGDLEKIEISQNDVLEVIEADVFSNLPKLHEIRIEKANNLLYINPEAFQNLPNLQYLLISNTGIKHLPDVHKIHSLQKVLLDIQDNINIHTIERNSFVGLSFESVILWLNKNGIQEIHNCAFNGTQLDELNLSDNNNLEELPNDVFHGASGPVILDISRTRIHSLPSYGLENLKKLRARSTYNLKKLPTLEKLVALMEASLTYPSHCCAFANWRRQISELHPICNKSILRQEVDYMTQARGQRSSLAEDNESSYSRGFDMTYTEFDYDLCNEVVDVTCSPKPDAFNPCEDIMGYNILRVLIWFISILAITGNIIVLVILTTSQYKLTVPRFLMCNLAFADLCIGIYLLLIASVDIHTKSQYHNYAIDWQTGAGCDAAGFFTVFASELSVYTLTAITLERWHTITHAMQLDCKVQLRHAASVMVMGWIFAFAAALFPIFGISSYMKVSICLPMDIDSPLSQLYVMSLLVLNVLAFVVICGCYIHIYLTVRNPNIVSSSSDTRIAKRMAMLIFTDFCMAPISFFAISASLKVPLITVSKAKILLVLFHPINSCANPFLYAIFTKNFRRDFFILLSKCGCYEMQAQIYRTETSSTVHNTHPRNGHCSSAPRVTSGSTYILVPLSHLAQN
B2: R^11A: human FSHR with Ala substituted for R11 (protein)
chain: CHHRICHCSNAVFLCQESKVTEIPSDLPRNAIELRFVLTKLRVIQKGAFSGFGDLEKIEISQNDVLEVIEADVFSNLPKLHEIRIEKANNLLYINPEAFQNLPNLQYLLISNTGIKHLPDVHKIHSLQKVLLDIQDNINIHTIERNSFVGLSFESVILWLNKNGIQEIHNCAFNGTQLDELNLSDNNNLEELPNDVFHGASGPVILDISRTRIHSLPSYGLENLKKLRARSTYNLKKLPTLEKLVALMEASLTYPSHCCAFANWRRQISELHPICNKSILRQEVDYMTQARGQRSSLAEDNESSYSRGFDMTYTEFDYDLCNEVVDVTCSPKPDAFNPCEDIMGYNILRVLIWFISILAITGNIIVLVILTTSQYKLTVPRFLMCNLAFADLCIGIYLLLIASVDIHTKSQYHNYAIDWQTGAGCDAAGFFTVFASELSVYTLTAITLERWHTITHAMQLDCKVQLRHAASVMVMGWIFAFAAALFPIFGISSYMKVSICLPMDIDSPLSQLYVMSLLVLNVLAFVVICGCYIHIYLTVRNPNIVSSSSDTRIAKRMAMLIFTDFLCMAPISFFAISASLKVPLITVSKAKILLVLFHPINSCANPFLYAIFTKNFRRDFFILLSKCGCYEMQAQIYRTETSSTVHNTHPRNGHCSSAPRVTSGSTYILVPLSHLAQN
B3: V^12A: human FSHR with Ala substituted for V12 (protein)
chain: CHHRICHCSNRAFLCQESKVTEIPSDLPRNAIELRFVLTKLRVIQKGAFSGFGDLEKIEISQNDVLEVIEADVFSNLPKLHEIRIEKANNLLYINPEAFQNLPNLQYLLISNTGIKHLPDVHKIHSLQKVLLDIQDNINIHTIERNSFVGLSFESVILWLNKNGIQEIHNCAFNGTQLDELNLSDNNNLEELPNDVFHGASGPVILDISRTRIHSLPSYGLENLKKLRARSTYNLKKLPTLEKLVALMEASLTYPSHCCAFANWRRQISELHPICNKSILRQEVDYMTQARGQRSSLAEDNESSYSRGFDMTYTEFDYDLCNEVVDVTCSPKPDAFNPCEDIMGYNILRVLIWFISILAITGNIIVLVILTTSQYKLTVPRFLMCNLAFADLCIGIYLLLIASVDIHTKSQYHNYAIDWQTGAGCDAAGFFTVFASELSVYTLTAITLERWHTITHAMQLDCKVQLRHAASVMVMGWIFAFAAALFPIFGISSYMKVSICLPMDIDSPLSQLYVMSLLVLNVLAFVVICGCYIHIYLTVRNPNIVSSSSDTRIAKRMAMLIFTDFLCMAPISFFAISASLKVPLITVSKAKILLVLFHPINSCANPFLYAIFTKNFRRDFFILLSKCGCYEMQAQIYRTETSSTVHNTHPRNGHCSSAPRVTSGSTYILVPLSHLAQN
B4: S^9A: human FSHR with Ala substituted for S9 (protein)
chain: CHHRICHCANRVFLCQESKVTEIPSDLPRNAIELRFVLTKLRVIQKGAFSGFGDLEKIEISQNDVLEVIEADVFSNLPKLHEIRIEKANNLLYINPEAFQNLPNLQYLLISNTGIKHLPDVHKIHSLQKVLLDIQDNINIHTIERNSFVGLSFESVILWLNKNGIQEIHNCAFNGTQLDELNLSDNNNLEELPNDVFHGASGPVILDISRTRIHSLPSYGLENLKKLRARSTYNLKKLPTLEKLVALMEASLTYPSHCCAFANWRRQISELHPICNKSILRQEVDYMTQARGQRSSLAEDNESSYSRGFDMTYTEFDYDLCNEVVDVTCSPKPDAFNPCEDIMGYNILRVLIWFISILAITGNIIVLVILTTSQYKLTVPRFLMCNLAFADLCIGIYLLLIASVDIHTKSQYHNYAIDWQTGAGCDAAGFFTVFASELSVYTLTAITLERWHTITHAMQLDCKVQLRHAASVMVMGWIFAFAAALFPIFGISSYMKVSICLPMDIDSPLSQLYVMSLLVLNVLAFVVICGCYIHIYLTVRNPNIVSSSSDTRIAKRMAMLIFTDFLCMAPISFFAISASLKVPLITVSKAKILLVLFHPINSCANPFLYAIFTKNFRRDFFILLSKCGCYEMQAQIYRTETSSTVHNTHPRNGHCSSAPRVTSGSTYILVPLSHLAQN
B5: F^13A: human FSHR with Ala substituted for F13 (protein)
chain: CHHRICHCSNRVALCQESKVTEIPSDLPRNAIELRFVLTKLRVIQKGAFSGFGDLEKIEISQNDVLEVIEADVFSNLPKLHEIRIEKANNLLYINPEAFQNLPNLQYLLISNTGIKHLPDVHKIHSLQKVLLDIQDNINIHTIERNSFVGLSFESVILWLNKNGIQEIHNCAFNGTQLDELNLSDNNNLEELPNDVFHGASGPVILDISRTRIHSLPSYGLENLKKLRARSTYNLKKLPTLEKLVALMEASLTYPSHCCAFANWRRQISELHPICNKSILRQEVDYMTQARGQRSSLAEDNESSYSRGFDMTYTEFDYDLCNEVVDVTCSPKPDAFNPCEDIMGYNILRVLIWFISILAITGNIIVLVILTTSQYKLTVPRFLMCNLAFADLCIGIYLLLIASVDIHTKSQYHNYAIDWQTGAGCDAAGFFTVFASELSVYTLTAITLERWHTITHAMQLDCKVQLRHAASVMVMGWIFAFAAALFPIFGISSYMKVSICLPMDIDSPLSQLYVMSLLVLNVLAFVVICGCYIHIYLTVRNPNIVSSSSDTRIAKRMAMLIFTDFLCMAPISFFAISASLKVPLITVSKAKILLVLFHPINSCANPFLYAIFTKNFRRDFFILLSKCGCYEMQAQIYRTETSSTVHNTHPRNGHCSSAPRVTSGSTYILVPLSHLAQN

Legend:
[1] = test system: human FSHR; test: ^125I-FSH binding to wild type and mutant FSH receptors on intact stably transfected HEK 293 cells; conditions: for FSH binding / Kd compared with the wild type receptor, in words: intact HEK 293 cells
Description: (§1) Mutant FSHR cDNAs were prepared in the pSELECT vector using the Altered Sites Mutagenesis system (Promega), sequenced on a Beckman CEQ 2000XL capillary sequencer, subcloned into pcDNA3 (Invitrogen), and sequenced again to verify mutation sequences. […] Wild type and mutant receptor constructs were transfected into HEK 293 cells by the calcium phosphate method as previously described. Stable cell lines were established in minimum essential medium containing 10% horse serum and 500 μg/ml of G418. These cells were used for hormone binding, cAMP production. All assays were carried out in duplicate and repeated 4-5 times, and means±S.D. were calculated.
(§2) The Kd values were determined by Scatchard plots. For intracellular cAMP assay, cells were washed twice with Dulbecco's modified Eagle's medium and incubated in the medium containing 0.1 μg/ml isobutylmethylxanthine for 15 mm. Increasing concentrations of FSH were then added and incubation was continued for 45 mm at 37° C. After removing the medium, the cells were rinsed once with fresh medium without isobutylmethylxanthine, lysed in 70% ethanol, freeze-thawed in liquid nitrogen, and scraped.
Each mutant human FSHR cDNA was prepared in a pSELECT vector using the non-PCR based Altered Sites Mutagenesis System (Promega), sequenced on a Beckman CEQ 2000XL capillary sequencer and subcloned into pcDNA3 (Invitrogen) as described. After subcloning pcDNA3 the mutant cDNAs were sequenced again. Plasmids were transfected into human embryonic kidney (HEK) 293 cells by the calcium phosphate method. Stable cell lines were established in minimum essential medium containing 10% horse serum and 500 μg/ml of G-418, and then used for hormone binding and cAMP assay. All assays were carried out in duplicate and repeated 4-6 times. Means and standard variations were calculated.
(§3) Human FSH (the National Hormone and Pituitary Program) was radioiodinated as previously described for radioiodination of hCG. […] The Kd values were determined by Scatchard plots. Truncated exodomain was solubilized in Nonidet P-40 and assayed for hormone binding as described previously. For intracellular cAMP assay, cells were washed twice with Dulbecco's modified Eagle's media and incubated in the media containing isobutylmethylxanthine (0.1 mg/ml) for 15 minutes. Increasing concentrations of FSH were then added and the incubation was continued for 45 minutes at 37° C. After removing the media, the cells were rinsed once with fresh media without isobutylmethylxanthine, lysed in 70% ethanol, freeze-thawed in liquid nitrogen, and scraped. […] Exoloop 3 of FSHR was modeled based on the crystal structure of rhodopsin as a template.

[2] = test system: human FSHR; test: FSH dependent intracellular cAMP assay, wild type and mutant FSHR in HEK 293 cells; assay type: cell-based; conditions: HEK 293 cells
Description: as §1, §2, §3

| Molecule | FSH dependent cAMP induction / EC50 compared with the wild type receptor, in words [2] | also measured |
| --- | --- | --- |
| B1 | – | improvement of hormone binding affinity (decrease of Kd) compared with wild type ([1]; FSH binding, mutant versus wild type FSHR): more than 4 fold |
| B2 | – | FSH binding / Kd compared with the wild type receptor, in words [1]: improved hormone binding; FSH binding / Kd compared with the wild type receptor, in words ([1]; listed as FSHR^R11A): lower than the wild type value |
| B3 | lower than the wild type value | – |
| B4 | lower than the wild type value | – |
| B5 | lower than the wild type value | – |
